This note sets out measurements from patent publication US20210230570.

Series [1] addresses Factor X (FX), P00742.
Series [2] addresses Factor X, P00742.
For series [3], the target named is antithrombin III (plasma purified human AT-III), in complex with unfractionated heparin.

Chain of Factor X, P00742 (P00742 whole entry, looked up): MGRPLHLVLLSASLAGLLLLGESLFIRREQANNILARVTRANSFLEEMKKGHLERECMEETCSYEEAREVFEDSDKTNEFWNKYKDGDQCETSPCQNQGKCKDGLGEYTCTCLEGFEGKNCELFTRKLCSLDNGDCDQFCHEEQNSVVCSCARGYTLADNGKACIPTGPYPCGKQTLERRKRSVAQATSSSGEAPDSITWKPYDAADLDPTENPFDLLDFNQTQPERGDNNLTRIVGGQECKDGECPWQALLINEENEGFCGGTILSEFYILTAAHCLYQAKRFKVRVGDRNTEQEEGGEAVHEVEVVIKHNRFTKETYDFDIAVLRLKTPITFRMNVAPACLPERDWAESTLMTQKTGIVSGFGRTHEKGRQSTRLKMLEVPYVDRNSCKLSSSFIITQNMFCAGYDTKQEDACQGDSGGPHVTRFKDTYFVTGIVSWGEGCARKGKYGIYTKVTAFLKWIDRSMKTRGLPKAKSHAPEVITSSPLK
Chain of Factor X (FX), P00742 (P00742 whole entry, looked up): as above

B1: FIXa-Y155F/K247N/N249S/R318Y/R338E/R403E (protein)
chain 1: YNSGKLEEFVQGNLERECMEEKCSFEEAREVFENTERTTEFWKQYVDGDQCESNPCLNGGSCKDDINSYECWCPFGFEGKNCELDVTCNIKNGRCEQFCKNSADNKVVCSCTEGYRLAENQKSCEPAVPFPCGRVSVSQTSKLTR
chain 2: VVGGEDAKPGQFPWQVVLNGKVDAFCGGSIVNEKWIVTAAHCVETGVKITVVAGEHNIEETEHTEQNRSVIRIIPHHNYNAAINKYNHDIALLELDEPLVLNSYVTPICIADKEYTNIFLKFGSGYVSGWGRVFHKGYSALVLQYLRVPLVDRATCLESTKFTIYNNMFCAGFHEGGRDSCQGDSGGPHVTEVEGTSFLTGIISWGEECAMKGKYGIYTKVSEYVNWIKEKTKLT
As to B1, in series [1], the Michaelis-Menten constant (KM) was 0.0673 µM and the kcat of FX activation by FIXa in the Xase complex (FVIIIa, PC/PS vesicles, Ca2+) is 5.7 s⁻¹. The kcat/KM in series [2] was 9.5e+07 M⁻¹ s⁻¹.

B2: FIXa-D104N/K106S/R318Y/R338E/R403E/E410N (protein)
chain 1: YNSGKLEEFVQGNLERECMEEKCSFEEAREVFENTERTTEFWKQYVDGDQCESNPCLNGGSCKDDINSYECWCPFGFEGKNCELDVTCNIKNGRCEQFCKNSANNSVVCSCTEGYRLAENQKSCEPAVPFPCGRVSVSQTSKLTR
chain 2: VVGGEDAKPGQFPWQVVLNGKVDAFCGGSIVNEKWIVTAAHCVETGVKITVVAGEHNIEETEHTEQKRNVIRIIPHHNYNAAINKYNHDIALLELDEPLVLNSYVTPICIADKEYTNIFLKFGSGYVSGWGRVFHKGYSALVLQYLRVPLVDRATCLESTKFTIYNNMFCAGFHEGGRDSCQGDSGGPHVTEVEGTSFLTGIISWGEECAMKGKYGIYTKVSEYVNWIKNKTKLT
As for B2, the kcat/KM (M^-1s^-1), FX activation by FIXa in the Xase complex in series [1] stood at 1.7e+08 M⁻¹ s⁻¹. In addition, the KM (Catalytic activity of FIXa variants) in series [2] is 0.0385 µM.

B3: FIXa-Y155F/K247N/N249S/R318Y/R403E/E410N (protein)
chain 1: YNSGKLEEFVQGNLERECMEEKCSFEEAREVFENTERTTEFWKQYVDGDQCESNPCLNGGSCKDDINSYECWCPFGFEGKNCELDVTCNIKNGRCEQFCKNSADNKVVCSCTEGYRLAENQKSCEPAVPFPCGRVSVSQTSKLTR
chain 2: VVGGEDAKPGQFPWQVVLNGKVDAFCGGSIVNEKWIVTAAHCVETGVKITVVAGEHNIEETEHTEQNRSVIRIIPHHNYNAAINKYNHDIALLELDEPLVLNSYVTPICIADKEYTNIFLKFGSGYVSGWGRVFHKGYSALVLQYLRVPLVDRATCLRSTKFTIYNNMFCAGFHEGGRDSCQGDSGGPHVTEVEGTSFLTGIISWGEECAMKGKYGIYTKVSEYVNWIKNKTKLT
Turning to B3, in series [1], the KM is 0.125 µM and the kcat of FX activation by FIXa in the Xase complex (FVIIIa, PC/PS vesicles, Ca2+) stood at 1.2 s⁻¹. The kcat/KM in series [2] was 1e+07 M⁻¹ s⁻¹.

B4: FIXa-R338E/R403E/E410N (protein)
chain 1: YNSGKLEEFVQGNLERECMEEKCSFEEAREVFENTERTTEFWKQYVDGDQCESNPCLNGGSCKDDINSYECWCPFGFEGKNCELDVTCNIKNGRCEQFCKNSADNKVVCSCTEGYRLAENQKSCEPAVPFPCGRVSVSQTSKLTR
chain 2: VVGGEDAKPGQFPWQVVLNGKVDAFCGGSIVNEKWIVTAAHCVETGVKITVVAGEHNIEETEHTEQKRNVIRIIPHHNYNAAINKYNHDIALLELDEPLVLNSYVTPICIADKEYTNIFLKFGSGYVSGWGRVFHKGRSALVLQYLRVPLVDRATCLESTKFTIYNNMFCAGFHEGGRDSCQGDSGGPHVTEVEGTSFLTGIISWGEECAMKGKYGIYTKVSEYVNWIKNKTKLT
In the case of B4, the kcat/KM for FX activation (Xase assay with FVIIIa, PC/PS vesicles, Ca2+) in series [1] came to 7.8e+07 M⁻¹ s⁻¹. Moreover, in series [2], the “% of WT (kcat/KM)” value worked out at 411%, the KM (Catalytic activity of FIXa variants) is 0.0455 µM and the kcat/KM turned out to be 1.9e+08 M⁻¹ s⁻¹. In series [3], this protein displayed a K0.5 of 2350 nM and a K0.5-mut/K0.5-wt of 122.

B5: FIXa-Y155F/R318Y/R338E/R403E (protein)
chain 1: YNSGKLEEFVQGNLERECMEEKCSFEEAREVFENTERTTEFWKQYVDGDQCESNPCLNGGSCKDDINSYECWCPFGFEGKNCELDVTCNIKNGRCEQFCKNSADNKVVCSCTEGYRLAENQKSCEPAVPFPCGRVSVSQTSKLTR
chain 2: VVGGEDAKPGQFPWQVVLNGKVDAFCGGSIVNEKWIVTAAHCVETGVKITVVAGEHNIEETEHTEQKRNVIRIIPHHNYNAAINKYNHDIALLELDEPLVLNSYVTPICIADKEYTNIFLKFGSGYVSGWGRVFHKGYSALVLQYLRVPLVDRATCLESTKFTIYNNMFCAGFHEGGRDSCQGDSGGPHVTEVEGTSFLTGIISWGEECAMKGKYGIYTKVSEYVNWIKEKTKLT
Consider B5, for which, in series [2], the “% of WT (kcat/KM)” value was determined as 189% and the kcat/KM came out at 8.7e+07 M⁻¹ s⁻¹.

B6: FIXa-A103N/N105S/R318Y/R338E/R403E/E410N (protein)
chain 1: YNSGKLEEFVQGNLERECMEEKCSFEEAREVFENTERTTEFWKQYVDGDQCESNPCLNGGSCKDDINSYECWCPFGFEGKNCELDVTCNIKNGRCEQFCKNSNDSKVVCSCTEGYRLAENQKSCEPAVPFPCGRVSVSQTSKLTR
chain 2: VVGGEDAKPGQFPWQVVLNGKVDAFCGGSIVNEKWIVTAAHCVETGVKITVVAGEHNIEETEHTEQKRNVIRIIPHHNYNAAINKYNHDIALLELDEPLVLNSYVTPICIADKEYTNIFLKFGSGYVSGWGRVFHKGYSALVLQYLRVPLVDRATCLESTKFTIYNNMFCAGFHEGGRDSCQGDSGGPHVTEVEGTSFLTGIISWGEECAMKGKYGIYTKVSEYVNWIKNKTKLT
In the case of B6, the kcat/KM (M^-1s^-1), FX activation by FIXa in the Xase complex in series [1] was determined as 1.5e+08 M⁻¹ s⁻¹. The KM (Catalytic activity of FIXa variants) in series [2] is 0.0447 µM.

B7: FIXa-A103N/N105S/Y155F/R318Y/R338E/R403E/E410N (protein)
chain 1: YNSGKLEEFVQGNLERECMEEKCSFEEAREVFENTERTTEFWKQYVDGDQCESNPCLNGGSCKDDINSYECWCPFGFEGKNCELDVTCNIKNGRCEQFCKNSNDSKVVCSCTEGYRLAENQKSCEPAVPFPCGRVSVSQTSKLTR
chain 2: VVGGEDAKPGQFPWQVVLNGKVDAFCGGSIVNEKWIVTAAHCVETGVKITVVAGEHNIEETEHTEQKRNVIRIIPHHNYNAAINKYNHDIALLELDEPLVLNSYVTPICIADKEYTNIFLKFGSGYVSGWGRVFHKGYSALVLQYLRVPLVDRATCLESTKFTIYNNMFCAGFHEGGRDSCQGDSGGPHVTEVEGTSFLTGIISWGEECAMKGKYGIYTKVSEYVNWIKNKTKLT
In the case of B7, the kcat/KM (M^-1s^-1), FX activation by FIXa in the Xase complex in series [1] amounted to 1.3e+08 M⁻¹ s⁻¹. Moreover, the KM (Catalytic activity of FIXa variants) in series [2] is 0.0507 µM.

B8: FIXa-Y155F/R318Y/R338E/R403E/E410N (protein)
chain 1: YNSGKLEEFVQGNLERECMEEKCSFEEAREVFENTERTTEFWKQYVDGDQCESNPCLNGGSCKDDINSYECWCPFGFEGKNCELDVTCNIKNGRCEQFCKNSADNKVVCSCTEGYRLAENQKSCEPAVPFPCGRVSVSQTSKLTR
chain 2: VVGGEDAKPGQFPWQVVLNGKVDAFCGGSIVNEKWIVTAAHCVETGVKITVVAGEHNIEETEHTEQKRNVIRIIPHHNYNAAINKYNHDIALLELDEPLVLNSYVTPICIADKEYTNIFLKFGSGYVSGWGRVFHKGYSALVLQYLRVPLVDRATCLESTKFTIYNNMFCAGFHEGGRDSCQGDSGGPHVTEVEGTSFLTGIISWGEECAMKGKYGIYTKVSEYVNWIKNKTKLT
For the protein B8, in series [1], the kcat/KM (M^-1s^-1), FX activation by FIXa in the Xase complex was 1.9e+08 M⁻¹ s⁻¹. Also, the KM (Catalytic activity of FIXa variants) in series [2] came out at 0.0304 µM.

B9: FIXa-K247N/N249S/R318Y/R403E/E410N (protein)
chain 1: YNSGKLEEFVQGNLERECMEEKCSFEEAREVFENTERTTEFWKQYVDGDQCESNPCLNGGSCKDDINSYECWCPFGFEGKNCELDVTCNIKNGRCEQFCKNSADNKVVCSCTEGYRLAENQKSCEPAVPFPCGRVSVSQTSKLTR
chain 2: VVGGEDAKPGQFPWQVVLNGKVDAFCGGSIVNEKWIVTAAHCVETGVKITVVAGEHNIEETEHTEQNRSVIRIIPHHNYNAAINKYNHDIALLELDEPLVLNSYVTPICIADKEYTNIFLKFGSGYVSGWGRVFHKGYSALVLQYLRVPLVDRATCLRSTKFTIYNNMFCAGFHEGGRDSCQGDSGGPHVTEVEGTSFLTGIISWGEECAMKGKYGIYTKVSEYVNWIKNKTKLT
Consider B9, for which, in series [1], the KM is 0.111 µM and the kcat of FX activation by FIXa in the Xase complex (FVIIIa, PC/PS vesicles, Ca2+) is 2.9 s⁻¹. The kcat/KM in series [2] was determined as 2.7e+07 M⁻¹ s⁻¹.

B10: FIXa-K247N/N249S/R318Y/R338E/R403E (protein)
chain 1: YNSGKLEEFVQGNLERECMEEKCSFEEAREVFENTERTTEFWKQYVDGDQCESNPCLNGGSCKDDINSYECWCPFGFEGKNCELDVTCNIKNGRCEQFCKNSADNKVVCSCTEGYRLAENQKSCEPAVPFPCGRVSVSQTSKLTR
chain 2: VVGGEDAKPGQFPWQVVLNGKVDAFCGGSIVNEKWIVTAAHCVETGVKITVVAGEHNIEETEHTEQNRSVIRIIPHHNYNAAINKYNHDIALLELDEPLVLNSYVTPICIADKEYTNIFLKFGSGYVSGWGRVFHKGYSALVLQYLRVPLVDRATCLESTKFTIYNNMFCAGFHEGGRDSCQGDSGGPHVTEVEGTSFLTGIISWGEECAMKGKYGIYTKVSEYVNWIKEKTKLT
Take B10: in series [1], the KM was 0.0536 µM and the kcat of FX activation by FIXa in the Xase complex (FVIIIa, PC/PS vesicles, Ca2+) came to 10.5 s⁻¹. Also, the kcat/KM in series [2] is 2.3e+08 M⁻¹ s⁻¹.

B11: FIXa-D203N/F205T/R318Y/E410N (protein)
chain 1: YNSGKLEEFVQGNLERECMEEKCSFEEAREVFENTERTTEFWKQYVDGDQCESNPCLNGGSCKDDINSYECWCPFGFEGKNCELDVTCNIKNGRCEQFCKNSADNKVVCSCTEGYRLAENQKSCEPAVPFPCGRVSVSQTSKLTR
chain 2: VVGGEDAKPGQFPWQVVLNGKVNATCGGSIVNEKWIVTAAHCVETGVKITVVAGEHNIEETEHTEQKRNVIRIIPHHNYNAAINKYNHDIALLELDEPLVLNSYVTPICIADKEYTNIFLKFGSGYVSGWGRVFHKGYSALVLQYLRVPLVDRATCLRSTKFTIYNNMFCAGFHEGGRDSCQGDSGGPHVTEVEGTSFLTGIISWGEECAMKGKYGIYTKVSRYVNWIKNKTKLT
With B11, the kcat/KM (M^-1s^-1), FX activation by FIXa in the Xase complex in series [1] amounted to 3.9e+07 M⁻¹ s⁻¹. In series [2], the KM (Catalytic activity of FIXa variants) stood at 0.0457 µM.

B12: FIXa-D104N/K106S/Y155F/R318Y/R338E/R403E/E410N (protein)
chain 1: YNSGKLEEFVQGNLERECMEEKCSFEEAREVFENTERTTEFWKQYVDGDQCESNPCLNGGSCKDDINSYECWCPFGFEGKNCELDVTCNIKNGRCEQFCKNSANNSVVCSCTEGYRLAENQKSCEPAVPFPCGRVSVSQTSKLTR
chain 2: VVGGEDAKPGQFPWQVVLNGKVDAFCGGSIVNEKWIVTAAHCVETGVKITVVAGEHNIEETEHTEQKRNVIRIIPHHNYNAAINKYNHDIALLELDEPLVLNSYVTPICIADKEYTNIFLKFGSGYVSGWGRVFHKGYSALVLQYLRVPLVDRATCLESTKFTIYNNMFCAGFHEGGRDSCQGDSGGPHVTEVEGTSFLTGIISWGEECAMKGKYGIYTKVSEYVNWIKNKTKLT
For the protein B12, the kcat/KM (M^-1s^-1), FX activation by FIXa in the Xase complex in series [1] worked out at 1.8e+08 M⁻¹ s⁻¹. Moreover, the KM (Catalytic activity of FIXa variants) in series [2] came out at 0.048 µM.

Broadly, the KM is the concentration of substrate that gives half-maximal velocity. The term kcat/KM denotes the second-order rate constant that governs catalysis at low substrate concentration.
